Assay [1] has as its target T1, human NPRA on HEK293 cells bound to BNP (human, UniProt P16860 103-134).
T1 sequence: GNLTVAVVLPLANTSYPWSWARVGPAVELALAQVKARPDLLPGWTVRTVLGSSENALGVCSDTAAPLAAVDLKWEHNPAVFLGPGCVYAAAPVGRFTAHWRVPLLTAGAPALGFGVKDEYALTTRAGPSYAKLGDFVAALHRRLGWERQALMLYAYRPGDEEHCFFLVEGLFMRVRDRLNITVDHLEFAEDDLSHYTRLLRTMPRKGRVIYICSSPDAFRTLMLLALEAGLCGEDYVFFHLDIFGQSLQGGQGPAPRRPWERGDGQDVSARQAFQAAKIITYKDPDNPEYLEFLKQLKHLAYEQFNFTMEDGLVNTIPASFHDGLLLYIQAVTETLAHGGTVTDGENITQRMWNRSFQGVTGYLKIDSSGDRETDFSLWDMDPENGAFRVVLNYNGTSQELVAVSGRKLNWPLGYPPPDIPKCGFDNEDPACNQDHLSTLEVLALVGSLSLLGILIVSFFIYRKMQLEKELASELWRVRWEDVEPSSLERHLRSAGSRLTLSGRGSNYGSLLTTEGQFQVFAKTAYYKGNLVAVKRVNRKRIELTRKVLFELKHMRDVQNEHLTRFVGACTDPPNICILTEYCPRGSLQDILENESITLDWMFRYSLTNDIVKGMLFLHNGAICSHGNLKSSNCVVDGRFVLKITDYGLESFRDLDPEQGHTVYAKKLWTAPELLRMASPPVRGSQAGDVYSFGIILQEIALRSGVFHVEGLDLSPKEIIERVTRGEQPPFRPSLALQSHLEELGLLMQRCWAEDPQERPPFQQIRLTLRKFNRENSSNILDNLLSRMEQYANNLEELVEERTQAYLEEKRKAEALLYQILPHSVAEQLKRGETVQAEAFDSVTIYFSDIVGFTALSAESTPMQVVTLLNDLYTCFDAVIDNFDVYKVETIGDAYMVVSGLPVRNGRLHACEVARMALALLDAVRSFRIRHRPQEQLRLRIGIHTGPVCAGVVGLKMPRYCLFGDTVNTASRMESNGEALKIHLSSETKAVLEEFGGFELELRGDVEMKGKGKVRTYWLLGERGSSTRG
T1 sequence (peptide): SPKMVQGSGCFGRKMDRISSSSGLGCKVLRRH
In words: cell-based or functional assay.

In assay [2] the target is T2, human NPRA on HEK293 cells bound to ANP (human, UniProt P01160 124-151).
T2 sequence: T1 sequence
T2 sequence (peptide): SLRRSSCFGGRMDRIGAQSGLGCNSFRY
Kind of assay: cell-based or functional assay.

Assay [3] concerns the target T3, human NPRA on HEK293 cells, without added ligand (human, UniProt P16066 33-1061).
T3 construct: a signal peptide is not delimited; also called HEK NPRA cells; HEK hNPRA cells
T3 sequence: T1 sequence
In words: FACS, HEK NPRA cells without ligand. A general note: Flow cytometry measures light scatter and fluorescence of single cells or particles in a stream.

Assay [4] addresses T2, human NPRA on HEK293 cells bound to ANP. Kind of assay: FACS titration on ANP bound HEK NPRA cells; ANP bound HEK NPRA cells.
Assay [5] addresses T1, human NPRA on HEK293 cells bound to BNP. Kind of assay: FACS titration on BNP bound HEK NPRA cells; BNP bound HEK NPRA cells.
The target in assay [6] is T4, atrial natriuretic peptide (ANP), free (UniProt P01160 124-151, 125I label in the radioligand assays of Example 10).
T4 construct: mature; also called free ANP
T4 peptide (looked up): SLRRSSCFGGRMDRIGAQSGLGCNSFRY
In words: FACS competition: Fab pre-incubated with free ANP, then HEK NPRA cells loaded with 100 nM ANP.

The target in assay [7] is T2, human NPRA on HEK293 cells bound to ANP. Kind of assay: FACS, HEK NPRA cells with ANP.
For assay [8], the target named is T5, human NPRC on HEK293 cells in the presence of ANP (human, UniProt P17342 27-541; P01160 124-151).
T5 construct: whole, on cells;mature; also called HEK NPRC cells + 100 nM ANP
T5 sequence (looked up): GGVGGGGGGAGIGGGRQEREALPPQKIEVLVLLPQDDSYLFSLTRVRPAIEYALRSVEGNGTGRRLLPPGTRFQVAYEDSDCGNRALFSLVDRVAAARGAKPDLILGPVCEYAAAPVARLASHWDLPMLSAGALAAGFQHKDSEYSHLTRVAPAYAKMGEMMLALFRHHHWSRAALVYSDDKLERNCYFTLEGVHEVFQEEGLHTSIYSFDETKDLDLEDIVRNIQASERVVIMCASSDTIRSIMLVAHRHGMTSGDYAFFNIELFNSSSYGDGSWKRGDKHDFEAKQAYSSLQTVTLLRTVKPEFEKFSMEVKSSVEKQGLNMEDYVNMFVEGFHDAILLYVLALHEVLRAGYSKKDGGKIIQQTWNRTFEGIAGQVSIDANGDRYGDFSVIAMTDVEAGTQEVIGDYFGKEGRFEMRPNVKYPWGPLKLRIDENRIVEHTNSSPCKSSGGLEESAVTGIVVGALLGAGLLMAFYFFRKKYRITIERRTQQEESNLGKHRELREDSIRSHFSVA
T5 sequence (peptide, looked up): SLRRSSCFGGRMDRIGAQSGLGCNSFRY
Kind of assay: FACS, HEK NPRC cells with 100 nM ANP.
Protocol: (§1) HEK NPRA cells are detached with Accutase (PAA Laboratories GmbH, Cat. No. L11-007, Austria), harvested by centrifugation (900 rpm, 4 minutes) and resuspended in FACS buffer (PBS/3% FCS/0.02% NaN3) to a final concentration of 10⁶ cells/ml. 100 μl of the cell suspension is transferred to each well of a 96 round bottom plate (TC Microwell 96U, Nunc). […] Cells are washed in 150 μl of FACS buffer, pelleted and resuspended in 50 μl of the solution containing the primary antibody comprising a BEL extract of Fabs, a diluted BEL extract or purified antibody diluted in FACS buffer and incubated on ice for 30 min. Cells are washed again in FACS buffer and resuspended in 50 μl of FACS buffer containing the secondary antibody (R-Phycoerythrin-conjugated Affipure F(ab′)₂ Fragment Goat Anti-Human IgG, Dianova) and incubated on ice for 45 min. Cells are washed twice with FACS buffer and resuspended in 200 μl of FACS buffer for analysis in the FACS Array (BD Biosciences).

The target in assay [9] is T2, human NPRA on HEK293 cells bound to ANP. In words: cell-based or functional assay. The source holds these as a separate data set.
Assay [10] has the same target. Kind of assay: FACS, HEK NPRA cells loaded with 100 nM ANP.
Assay [11] addresses T6, human NPRC on HEK293 cells in the presence of BNP (human, UniProt P17342 27-541; P16860 103-134).
T6 construct: whole, on cells;mature; also called HEK NPRC cells + 100 nM BNP
T6 sequence (looked up): T5 sequence (looked up)
T6 sequence (peptide, looked up): T1 sequence (peptide)
Kind of assay: FACS, HEK NPRC cells with 100 nM BNP.
Protocol: as §1

In assay [12] the target is T2, human NPRA on HEK293 cells bound to ANP. In words: FACS, IgG4_Pro on HEK NPRA cells in the presence of 100 nM ANP.
Protocol: as §1
Assay [13] has as its target T7, human NPRC on HEK293 cells, without added ligand (human, UniProt P17342 27-541).
T7 construct: whole, on cells; also called HEK NPRC cells; natriuretic peptide receptor C
T7 sequence (looked up): T5 sequence (looked up)
In words: FACS, HEK NPRC cells without ligand.
Protocol: as §1

Assay [14] concerns the target T8, NPRA-Fc fusion protein, without ligand (human).
T8 construct: also called NPRA-ECD-Fc; recombinant NPRA-Fc
T8 chain: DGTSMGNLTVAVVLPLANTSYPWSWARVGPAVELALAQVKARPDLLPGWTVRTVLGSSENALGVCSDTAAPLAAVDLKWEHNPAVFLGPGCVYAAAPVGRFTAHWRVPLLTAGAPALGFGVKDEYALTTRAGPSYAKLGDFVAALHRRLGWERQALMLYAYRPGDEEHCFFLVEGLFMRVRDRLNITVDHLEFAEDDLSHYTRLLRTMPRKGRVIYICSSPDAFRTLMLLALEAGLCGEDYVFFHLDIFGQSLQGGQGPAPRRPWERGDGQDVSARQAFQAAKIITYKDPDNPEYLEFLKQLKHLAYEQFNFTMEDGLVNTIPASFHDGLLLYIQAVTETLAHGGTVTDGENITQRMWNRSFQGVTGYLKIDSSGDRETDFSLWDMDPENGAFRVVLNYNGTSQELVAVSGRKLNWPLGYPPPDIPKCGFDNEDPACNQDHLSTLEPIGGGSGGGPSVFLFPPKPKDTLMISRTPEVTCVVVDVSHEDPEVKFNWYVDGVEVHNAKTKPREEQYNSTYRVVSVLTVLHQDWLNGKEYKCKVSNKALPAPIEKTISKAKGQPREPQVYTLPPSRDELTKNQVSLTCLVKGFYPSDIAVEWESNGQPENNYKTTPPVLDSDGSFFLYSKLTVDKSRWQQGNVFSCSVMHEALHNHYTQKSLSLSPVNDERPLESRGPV
Kind of assay: ELISA on captured NPRA-Fc without ligand. On the technique in general: An ELISA detects its analyte on a solid surface through an enzyme-linked reagent.

Assay [15] deals with T9, biotinylated ANP (UniProt P01160 124-151, biotin label (position not given)).
T9 construct: mature; Text: conjugated to Streptavidin beads; also called biotin-labeled ANP
T9 peptide (looked up): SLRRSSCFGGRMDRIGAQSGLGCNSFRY
Kind of assay: binding to biotinylated ANP on streptavidin, ECL readout (legend: ELISA).

B1: 5064 Fab (Fab, V domains shown)
VH: QVQLQQSGPGLVKPSQTLSLTCAISGDSVSSRSASWSWIRQSPGRGLEWLGRIYYRSKWYNDYAVSVKSRITINPDTSKNQFSLQLNSVTPEDTAVYYCARMDVPSFRYFDVWGQGTLVTVSS
VL: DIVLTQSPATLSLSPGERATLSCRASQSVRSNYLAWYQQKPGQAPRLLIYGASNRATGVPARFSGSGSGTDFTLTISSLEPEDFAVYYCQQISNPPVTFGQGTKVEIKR
The EC50 is the concentration needed to bring the measured effect to its halfway point. The EC50 (read off the curve) is the concentration that produces a half-maximal response. Lower therefore signals greater potency. With B1, the “fold decrease of the EC50 of BNP (cGMP, 400 nM Fab)” value in assay [1] amounted to 2 fold. Moreover, the “EC50 of ANP, cGMP production in HEK NPRA cells, with 400 nM Fab” value in [2] is 1 nM. Besides, the binding result in assay [3] was “no binding (tested: 20 µg/ml)”; in assay [6] it was “no binding (tested: 10000 nM)”. Further, the EC50 in [4] was not below 100 nM; in [5] it was not below 300 nM. In addition, the “EC50 (read off the curve)” value in assay [7] is approximately 100 nM.

B2: 5064 IgG4_Pro (antibody, V domains shown)
VH: B1 VH
VL: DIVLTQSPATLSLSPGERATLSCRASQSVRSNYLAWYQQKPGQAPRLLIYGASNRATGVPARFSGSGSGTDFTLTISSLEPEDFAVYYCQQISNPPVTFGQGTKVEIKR
As for B2, the binding result in [8], in assay [11] and in assay [13] was “no binding (tested: 20 nM)” in each case. The “cGMP EC50 (nM), titration of the antibody on HEK NPRA cells with 200 pM ANP” value in [9] is 12.1 nM. In addition, the EC50 in assay [10] turned out to be 1.6 nM; in [12], 1.08 nM.

B3: 5064 Fab-dHLX (other)
VH: B1 VH
VL: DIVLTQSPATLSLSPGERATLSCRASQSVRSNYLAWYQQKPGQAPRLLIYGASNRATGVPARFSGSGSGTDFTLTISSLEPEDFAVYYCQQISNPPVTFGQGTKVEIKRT
For the molecule B3, the binding result in assay [3] was “no binding (tested: 20 µg/ml)”; in [14], “no binding (tested: 20 µg/ml)”; in assay [15], “no binding (tested: 10 nM)”.
